For one substance, Kd results are on record in publication PMC5856483.

The assay concerns the target FITC-Dsn1 560-572 synthetic peptide (S. cerevisiae) (S. cerevisiae). The experiment in a line: fluorescence polarisation.

The substance “S. cerevisiae Spc24 155-213/Spc25 132-221 heterodimer (from UniProt Q04477 155-213; P40014 132-221) (complex)” returned a dissociation constant (Kd) of 12 µM.
